The source of these data is article PMC8774819.

The data set deals with BES1-MBP (Arabidopsis thaliana, UniProt Q9LN63 1-335). The data set is described as follows: EMSA. (A gel shift assay detects complexes by their altered migration in electrophoresis.)
Sequence of BES1-MBP (Q9LN63 whole entry): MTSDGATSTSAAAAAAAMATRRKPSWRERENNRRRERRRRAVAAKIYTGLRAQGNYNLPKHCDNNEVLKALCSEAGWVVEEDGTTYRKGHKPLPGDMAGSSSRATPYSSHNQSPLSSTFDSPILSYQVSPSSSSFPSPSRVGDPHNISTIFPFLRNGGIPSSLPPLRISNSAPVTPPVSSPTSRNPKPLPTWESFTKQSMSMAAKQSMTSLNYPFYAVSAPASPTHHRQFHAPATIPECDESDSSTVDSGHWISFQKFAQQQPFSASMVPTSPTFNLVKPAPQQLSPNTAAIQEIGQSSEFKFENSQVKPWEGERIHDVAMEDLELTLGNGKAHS

B1: WOX4 promoter probe a (dsDNA)
DNA 1: CCATCTGATCACAGCTTGACACACGAATCAGGTTATCCATCGTGTGA
DNA 2: TCACACGATGGATAACCTGATTCGTGTGTCAAGCTGTGATCAGATGG
On to B1, for which the binding result is “binds”.

B2: WOX4 promoter probe c (dsDNA)
DNA 1: GTAACGAGAAAGGCATGCATAGCATTTGCTAGTTTTAACATATAGCA
DNA 2: TGCTATATGTTAAAACTAGCAAATGCTATGCATGCCTTTCTCGTTAC
On to B2, for which the binding result is listed as “binds”.
